# Values of other authors in patent US20250388691A1, “METHODS FOR TREATING LYMPHOMA” (Xencor, Inc., priority 2022, published 2025).
# How the values were obtained:
# [1] = tested on: R/R DLBCL; conditions: ongoing Phase 1 study XmAb13676-01, NCT02924402
# [2] = plamotamab, Investigator's Brochure, 2021
substance,measurement,setting,value
plamotamab: humanized bsAb that binds both CD3 and the tumor antigen CD20; Fab-scFv-Fc format,"TLS, R/R NHL subjects","Phase 1 monotherapy, 2 of the 80 R/R NHL subjects",2.5%
same,"any-grade TLS, subjects","Phase 1 monotherapy, CD20-expressing hematologic malignancies, 4 of 96 subjects",4.2%
same,CRS,"XmAb13676-01 study, especially with the Cycle 1 Day 1 dose",frequently observed
same,serious or fatal events of TLS,plamotamab monotherapy in R/R DLBCL,no serious or fatal events of TLS
same,Adverse events of neutropenia (all grades),[2],20.8%
same,Adverse events of thrombocytopenia (all grades),[2],24.0%
same,responses in subjects with R/R DLBCL,[1],durable responses
